Data reported in the nanobody polyreactivity screen of Harvey et al. (2022).

assay: yeast display, Sf9 membrane polyspecificity reagent, FACS + sequencing; frameworks hold sequencing errors
Summary of the method: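 After 36–48 hours of galactose induction, yeast (Saccharomyces cerevisiae BJ5465) displaying a synthetic nanobody library were stained at 4 °C for 1 hour with 10% biotinylated, detergent-solubilized Sf9 membrane reagent. Streptavidin microbeads enriched the stained cells before FACS sorting into low and high (top ~1%) gates on anti-HA and streptavidin fluorescence. Each clone's polyreactivity label reflects its gate of origin.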

Q: With “QVQLVESGGGLGQAGGSLSLSCAAYGRIYSRYAMGWYRQAPGKERELVAAINSGGITNYADSVKGRFTISRDNAKNTVYLQMNSLNPEDTAVYYCAAQARRSWGKYYYWGQGTQVPVSS” as the sequence, how does the “polyreactivity (PSR sort gate)” value read?
A: high polyreactivity

Q: Which “polyreactivity (PSR sort gate)” value does the source give for “QVQLVESGGGLIQAGGSLRLSCAASGIIFYPYTMGWYRPAPGKERELVAAIRQSGTSTYYADSVKGRFTISRDNAKKTVYFQMNSLKPEDTAVYYCNADDHIYWRKGYDYWGQGTQVTVSS” here?
A: low polyreactivity

Q: Which “polyreactivity (PSR sort gate)” value does the source give for “QVQLVESGGGLIQAGGSLRLSCAASGSNFRYYALGWYRQAPGKESELVAAISQSGGSTHYAESVKGRFTISRDNAKITVYLQMNSLKAEDTAVYYCAKHWGPGTQVTVSS” here?
A: low polyreactivity

Q: For “QVQLVESGGGLIQAGGSLRLSCAASGSTFGTYTRGWYRQAPGKERELVAAIRSGGITYYADSVKGRFTISRDNAKNTVYLQMNSLKPEDTAVYYCAKQYTGEPAMEYWGQGTQVTVSS”, which “polyreactivity (PSR sort gate)” value is on record?
A: low polyreactivity

Q: With “QVQLVESGGGLIQAGGSRRLSCAASGIIFYPYTMGWYRQARGKERELVAAIRQSGTSTYYADSVKGRFTISRDNAKNTVYLQMNSLKPEDTAVYYCNADDHIYWRKGYDYWGQGTQVTVSS” as the sequence, how does the “polyreactivity (PSR sort gate)” value read?
A: low polyreactivity

Q: With “QVQLVESGGGLLKAGGSLRLSCAASGRIFDIYNMGWYRPAPGKERELVAAISSSGGRTYYADSVKGRFTISRDNAKTTVYLQMKSVKPEDTAVYYGAARPSKYVGSRGYDYWGQGTQVTVSS” as the sequence, how does the “polyreactivity (PSR sort gate)” value read?
A: high polyreactivity

Q: With “QVQLVESGGGLLQAGGRLRLSCAASVSIFTRYDMGWYRQAPGKEREFVAAISRGGGSTYYADSVKVRFTISLDNAKNTVYLQMISLKPENTAVYYCAPGVARYVKTASDYWGHGTQVTVSS” as the sequence, how does the “polyreactivity (PSR sort gate)” value read?
A: high polyreactivity

Q: For “QVQLVESGGGLLQAGGSLLLSCAASGITFYDNAMGWYRQAPGKERELVAGISYDGDSTYADSVKGRFTISRDNAKNTVYLQMNSLKPEDTAVYYCAALGPYEWLWAGDYWGQGTQVTVSS”, which “polyreactivity (PSR sort gate)” value is on record?
A: low polyreactivity

Q: Which “polyreactivity (PSR sort gate)” value does the source give for “QVQLVESGGGLLQAGGSLPLSCAASGFTFVPYAMGLYIQAPGKERELDAAISSRGDSTYYADSVKGRFTISRDNAKNTVYLQMIRLSPEDTAFYYCIARTTPHMDYWGQGTQVTVSS” here?
A: low polyreactivity

Q: With “QVQLVESGGGLLQAGGSLRISCAASGSTFYYYAMGWYRQAPGKERELVAAISRGGGSTYYADSVKGRFTISRDNAKNTVYLQMNSLKPEDTAVYYCAARRVGGGFYTWRNPAYEYWGQGTQVTVSS” as the sequence, how does the “polyreactivity (PSR sort gate)” value read?
A: high polyreactivity

Q: For “QVQLVESGGGLLQAGGSLRLIWAASGIIFVKNSMGWYRQAPGKERELVAAITVSGSRTYYADSVKGRFTISRDNAKNTVYLQMNSLKPEDTAVYYCNAYPYYRGRNMDSWGQGTQVTVSS”, which “polyreactivity (PSR sort gate)” value is on record?
A: high polyreactivity

Q: For “QVQLVESGGGLLQAGGSLRLSCAASGFIFADNAMGRYIQAPGKERELVAGITSGGITNYADSVKGRFTISRDNAKNTVYLQMNSLKPEDSAVYYCAVYYRRWLSRYDYWGQGTQVTVSA”, which “polyreactivity (PSR sort gate)” value is on record?
A: low polyreactivity

Q: With “QVQLVESGGGLLQAGGSLRLSCAASGFIFRFNAMGWYRQAPWTERELVAVIRWSSGSTYYADSVKGRFTISRDNAKNTVYLQMNSRKPEDTAVYYCAAVDDEYSIVWYDYWGQGTQVTVSA” as the sequence, how does the “polyreactivity (PSR sort gate)” value read?
A: low polyreactivity

Q: Which “polyreactivity (PSR sort gate)” value does the source give for “QVQLVESGGGLLQAGGSLRLSCAASGFTFFIYAMGWYRQAPGKEREFVAAITGSGGSTYYADSVKGRFRISRDNPKNTVYLLMNSLKPEDTAVYYCNKLSYGRSGYWGQGTQVTVSS” here?
A: high polyreactivity

Q: With “QVQLVESGGGLLQAGGSLRLSCAASGFTIYRYAMGWYRQAPGKERELVGAITGGGGSTYYADSVKGRFTISRDNAKNTVYLQMNSLKPEDTAVYYCAVDVYHKGQYRWSYVYWGQGTQVTVSS” as the sequence, how does the “polyreactivity (PSR sort gate)” value read?
A: low polyreactivity

Q: For “QVQLVESGGGLLQAGGSLRLSCAASGGTFTWYAMGWYRQAPGKERELVAAISSDGSTYYADSVKGRFTISRDNAKNTVYLQMNSLKPEDTAVYYCAAYSSWGGFDYWGQGTQVTVSS”, which “polyreactivity (PSR sort gate)” value is on record?
A: low polyreactivity

Q: With “QVQLVESGGGLLQAGGSLRLSCAASGITFYRNAMGWYRQAPGKERELVAAITWSGGSTYYADSVKGRFTISRDYAKNTVYLQMNSLKPEDSAVYYCNADYRHRYYWGQGTQVTVSS” as the sequence, how does the “polyreactivity (PSR sort gate)” value read?
A: high polyreactivity

Q: Which “polyreactivity (PSR sort gate)” value does the source give for “QVQLVESGGGLLQAGGSLRLSCAASGLTFVGYDMGWYRQAPGKERELVAAISTGGGSTYYADSVKGRFTISRDNAMNTVYLKMNSLKPEDTAVYYCNKLRLHGDRYDYWGQGTQVTVSS” here?
A: high polyreactivity

Q: With “QVQLVESGGGLLQAGGSLRLSCAASGNTFAYNTMGWYIQAPGKERELVAAILTRGGSTYYADSVKGRFTISRDNAKKTVYLQMNSLNREDTAVYYGAADYRFHGYWSYDYWGQGTQVTVSS” as the sequence, how does the “polyreactivity (PSR sort gate)” value read?
A: low polyreactivity

Q: Which “polyreactivity (PSR sort gate)” value does the source give for “QVQLVESGGGLLQAGGSLRLSCAASGRIFGRNTKGWYRQAPGKERELVAVISWRGGSTYYADSVKGRFTISRDNAKNSVYLQMNSLKPEDTAVYYCNAKYPFSRRGDYWGQGTQVTVSS” here?
A: high polyreactivity

Q: With “QVQLVESGGGLLQAGGSLRLSCAASGRTFGHYAMGWYRQAPGKEREFVAAITRGGGRTYYADSVKGRFTISRDNAKNTVYLQMNSLKPEDTAVYYCARKQYWGYDYWGQGTQVTVSS” as the sequence, how does the “polyreactivity (PSR sort gate)” value read?
A: low polyreactivity

Q: With “QVQLVESGGGLLQAGGSLRLSCAASGRTFKSYTMGWYRQAPGKERELVAAIRASGGITYYADSVKGRFTISRDNAKNTVYLQMNSLKPEDTAVYYCAARPRTRYDYWGQGTQVTVSS” as the sequence, how does the “polyreactivity (PSR sort gate)” value read?
A: high polyreactivity

Q: For “QVQLVESGGGLLQAGGSLRLSCAASGSISGYYAMGWYRQAPGKERELVASIRYTGARTYYADSVKGRFTISRDNAKNTVYLQMNSLKPEDTAVYYCAADVKRDRVWGGDYWGQGTQVTVSS”, which “polyreactivity (PSR sort gate)” value is on record?
A: low polyreactivity

Q: Which “polyreactivity (PSR sort gate)” value does the source give for “QVQLVESGGGLLQAGGSLRLSCAASGSIYTPYAMGWSRQAPGKERELVATITQSGSSTYYADSVKGRFTISRDNAKNSVYLQMNSLKPEDTAVYYCAADVQNISFDYWGQGTQVTVSS” here?
A: low polyreactivity

Q: Which “polyreactivity (PSR sort gate)” value does the source give for “QVQLVESGGGLLQAGGSLRLSCAASGSMFGLYAMGWYRQAPGKERELVAAISKSGGSTYYADSVKGRFTISRDNAKNTVYLQMNSLKPEDTAVYFCAARQYPRAGFDYWGQGTQVTVSS” here?
A: high polyreactivity

Q: Which “polyreactivity (PSR sort gate)” value does the source give for “QVQLVESGGGLLQAGGSLRLSCAASGSTCHRNTMGWSRQAPGKESELVAGISLRGVRTYYADSVKSRFTISRDNAKNTVYLQMNSLKPEDTAVYYCAAGGPYTRNFKLGYWGQGTQVTVSS” here?
A: high polyreactivity

Q: For “QVQLVESGGGLLQAGGSLRLSCAASGSTSPANAMGWYRQAPGKERELVAVINSGGGTNYADSVKGRFTISRDNAKNTVYLQMNCLKPEDTAVYYCAKGYRRSFIGYWYLKYGYWGQGSQVTVSS”, which “polyreactivity (PSR sort gate)” value is on record?
A: high polyreactivity

Q: With “QVQLVESGGGLLQAGGSLRLSCAASVSIFDSYAMGWYREAPGKERELVAVISESGGTTYNADSVKGRFTISRDNAKNTVYLQMNSLKPEDTAVYYCAAVWYFQFGVWGYYWGQGTQVTVSS” as the sequence, how does the “polyreactivity (PSR sort gate)” value read?
A: low polyreactivity

Q: With “QVQLVESGGGLLQAGGSLRLSCAASVSIFEYYPMGWYRPAPGKERELVADITWSGGSTYYADSVKGRFTISRDNAKNTVDLQMNSLKPEDSAVYYCAKGYYVYGIFHRFGYYWGQGTQVTVSS” as the sequence, how does the “polyreactivity (PSR sort gate)” value read?
A: high polyreactivity

Q: Which “polyreactivity (PSR sort gate)” value does the source give for “QVQLVESGGGLLQAGGSLRLSCADSGRTFGGYSMGWYRQATGKERELVAAISKRSGSTYYADSVKGRFTISRVNAKNTVYLQMNSLKPEDTAVYYCNKVWFQRSVQPVEYDYWGQGTQVTVSS” here?
A: high polyreactivity

Q: Which “polyreactivity (PSR sort gate)” value does the source give for “QVQLVESGGGLLQAGGSLRVSCAASGSIFHENAMGWYRQAPGKERELVAAIDQTGSTYADSVKGRFTISRDNAKNTVYLQMNSLKPEDTAVYYCAKGDVSLDYPSLEFDYWGQGSQVTVSS” here?
A: low polyreactivity

Q: With “QVQLVESGGGLLQAGGSRRLSCAASGRTFYSYGMGWYRRAPGKERELVARNTWSGGTYYADSVKGRFTISRDNAKNTVYLQMNSLKPEDTAVYYCAKRSYYWEYYYWGQGTQVTVSA” as the sequence, how does the “polyreactivity (PSR sort gate)” value read?
A: high polyreactivity
